Assay results published in patent publication US20160272707A1 (COMPUGEN, published 2016).

T1: VSTM5 monomer (UniProt A8MXK1 29-147, limits assumed)
T1 construct: also called monomeric VSTM5 antigen; VSTM5 antigen
T1 sequence (looked up): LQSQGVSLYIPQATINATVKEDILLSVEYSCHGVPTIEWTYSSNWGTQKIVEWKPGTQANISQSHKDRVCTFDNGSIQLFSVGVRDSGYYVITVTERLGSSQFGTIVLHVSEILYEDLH

T2: mouse VSTM5 (SEQ ID NO:11) expressed on HEK-293T cells (mouse, UniProt Q9D806 28-199)
T2 construct: also called mouse VSTM5 untagged
T2 sequence: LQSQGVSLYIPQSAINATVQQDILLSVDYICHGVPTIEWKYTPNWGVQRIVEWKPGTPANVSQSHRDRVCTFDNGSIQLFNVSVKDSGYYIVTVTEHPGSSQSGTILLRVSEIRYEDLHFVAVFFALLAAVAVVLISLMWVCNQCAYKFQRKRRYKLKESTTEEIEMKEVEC

T3: human VSTM5 (SEQ ID NO:132) expressed on HEK-293T cells (human, UniProt A8MXK1 29-200)
T3 construct: For the western blot, whole cell extracts were used; no signal peptide limits are stated; also called human VSTM5 untagged; HEK293T recombinant cells expressing human VSTM5
T3 sequence: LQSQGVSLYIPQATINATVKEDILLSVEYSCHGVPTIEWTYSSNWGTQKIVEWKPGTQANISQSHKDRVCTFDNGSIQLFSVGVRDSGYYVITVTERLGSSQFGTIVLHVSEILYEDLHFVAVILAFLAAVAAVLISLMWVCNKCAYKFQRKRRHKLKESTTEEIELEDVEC

T4: VSTM5 on human peripheral blood leukocytes (Homo sapiens, UniProt A8MXK1)
T4 construct: full-length, cell surface, endogenous; also called endogenous human VSTM5
T4 sequence (membrane protein, looked up): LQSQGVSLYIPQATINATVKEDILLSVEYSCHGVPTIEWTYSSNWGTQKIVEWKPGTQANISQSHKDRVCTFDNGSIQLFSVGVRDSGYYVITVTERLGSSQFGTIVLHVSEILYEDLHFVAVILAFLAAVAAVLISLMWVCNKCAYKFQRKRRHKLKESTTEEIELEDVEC

B1: 50-01.B01 (antibody, V domains shown)
VH: QVQLQESGPGLMKPSQTLSLTCTVSGDSITRGSSYWSWIRQSDGKGLEWIGHIYSGGDTDYNPALKSRVTISADASRGQFLLRLTSMTAADTAVYYCARDRGAYGMDVWGQGTTVTVSS
VL: QPVLTQSSSASASLGASVKLTCTLSSEHDRYAIAWLQQKPEKGPRYLMKVNSDGSHRKGDGIPDRFSGSSSGAERYLTISRLQSEDEADYYCQTWGIGIRVFGGGTQLTVLG
notes: also called 50-01.801
B2: 53-01.B11 (antibody, V domains shown)
VH: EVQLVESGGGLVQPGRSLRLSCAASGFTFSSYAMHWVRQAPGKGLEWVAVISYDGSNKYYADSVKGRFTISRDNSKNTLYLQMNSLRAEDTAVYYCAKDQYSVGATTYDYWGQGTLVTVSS
VL: QPVLTQSSSASASLGASVKLTCSLSSGHSSYAIAWHQQQPEKGPRYLMKLNSDGSHSKGDGIPDRFSGSSSGAERYLTISSLQSEDEADYYCQTWGSGIQVFGGGTKLTVLG
notes: also called S53-01-B11; S53-01.B11

Columns and labels:
VSTM5 monomer [1] = molecular target: T1, VSTM5 monomer; assay: SPR, VSTM5 monomer binding to the IgG
VSTM5 monomer [2] = molecular target: T1, VSTM5 monomer; assay: SPR, VSTM5 monomer binding to the IgG (equilibrium binding constant)
[3] = molecular target: T5, human VSTM5-EGFP (SEQ ID NO:133) expressed on HEK-293 cells (human); assay: FACS, IgG1 at 22 nM on 293-huVSTM5 (VSTM5-EGFP) cells; grade from ratio to 293-MT control cells (50-400)
T5 construct: Full-length human VSTM5 fused at its C-terminus to EGFP; also called VSTM5_GFP

[4] = molecular target: T2, mouse VSTM5 (SEQ ID NO:11) expressed on …; assay: FACS, IgG1 at 22 nM on 293-muVSTM5 cells; grade from ratio to 293-MT control cells (50-400)
[5] = molecular target: T3, human VSTM5 (SEQ ID NO:132) expressed …; assay: flow cytometry on HEK293T cells expressing untagged human VSTM5; antibody at 1 nM (0.15 ug/ml), PE goat anti-human secondary 1:200
Excerpt: To verify the cell-surface expression of human VSTM5 in HEK293T recombinant cells (FIG. 8C), cells expressing the protein were stained with monoclonal VSTM5 antibody (S53-01-B11, described in Example 12 and 13 herein) and appropriate Isotype control followed by Goat a human PE conjugated Ab (Cat#
Non expressing cell line (HEK293T_pIRESpuro3) was stained under the same conditions and used for a negative control.

[6] = molecular target: T5, human VSTM5-EGFP (SEQ ID NO:133) …; assay: FACS titration of the human IgG1 on 293-huVSTM5 cells, 293-MT control cells as open squares; y axis MFI (anti-Human A647)
[7] = molecular target: T2, mouse VSTM5 (SEQ ID NO:11) expressed on …; assay: FACS titration of the human IgG1 on 293-muVSTM5 cells, panel 'Ab binding vs. mouse VSTM5'; y axis MFI (anti-Human A647)
[8] = molecular target: T2, mouse VSTM5 (SEQ ID NO:11) expressed on …; assay: FACS, IgG1 at 22 nM on 293-muVSTM5 cells; grade from ratio to 293-MT control cells (850-2000)
[9] = molecular target: T4, VSTM5 on human peripheral blood …; assay: FACS, AF647 conjugated antibody on red-cell-lysed human peripheral blood of 3 donors, Fc receptors blocked with human IgG, against Synagis AF647
Description: Human peripheral blood was collected from 3 healthy donors. Red blood cells were lysed with RBC Lysis Buffer (eBiosciences Cat#00-4333-57) according to the manufacturer's protocol. Cells were incubated with 400 ug/ml human IgG (Jackson Immunoresearch #009-000-003) for 20 min on ice to block Fc receptors and then stained with cocktails consisting of Synagis® AF647, and anti-VSTM5 antibodies disclosed in Example 12, i.e., anti-VSTM5 AF647 (clone 44-2.E06 or 53-01.B11), anti-CD11b PE (Biolegend Cat#301305), anti-CD45 PerCp Cy5.5 (Biolegend #304207), anti-CD14 FITC (Biolegend cat#352610), or anti-CD41 PE (Biolegend Cat#303705) for 30 min on ice. All AF647 antibodies were conjugated at Compugen using Alexa Fluor® 647 Antibody Labeling Kit (Life Technologies Cat# A-20186) according to the manufacturer's protocol. Cells were washed twice with FACS Buffer (1% BSA, 0.1% Sodium Azide, PBS) and acquired on Intellicyte FACS machine. Data was analyzed by FlowJo and cell subsets defined as below: Monocytes: CD14⁺CD11b⁺, Neutrophils: CD11b⁺CD14^low, Lymphocytes FSC^lowSSC^lo, Eosinophils SSC^hi, platelets: CD45⁻CD41⁺. Staining of anti-VSTM5 antibodies to these cells was compared to staining with Synagis.

[10] = molecular target: T6, VSTM5-ECD-Ig H:H (human VSTM5 ECD fused to human IgG1 Fc, SEQ ID NO:130) (human); assay: FACS of tosyl-activated beads coated with anti-CD3 and 0 to 320 ug/ml VSTM5-ECD-Ig, stained with Alexa 647 conjugated 53-01.B11
T6 construct: also called VSTM5-ECD-Ig fusion protein; VSTM5HH
Description: Tosyl activated beads (Invitrogen, Cat#14013) at 500×10⁶/ml were coated with anti-CD3 mAb and Fc fusion proteins in a two-step protocol: with 50 ug/ml human anti-CD3 clone UTCH1 (R&D systems, Cat# mab 100) in sodium phosphate buffer at 37° C. overnight, followed with 0-320 ug/ml of VSTM5-ECD-Ig fusion protein (human ECD of VSTM5 fused with Fc of human IgG1) for another overnight incubation at 37° C. In the second step, control human Fc was added together with Fc fusion protein so that the total amount of protein is 160 ug/ml (Bioxcell, Cat# BE0096) for the 0, 20, 40, 80 and 160 ug/ml coating condition (except for the 320 ug/ml coating condition).
The amount of anti-CD3 antibody bound to the beads was analyzed using goat anti-mouse 647 (Jackson ImmunoResearch, Cat#115-606-146).

[11] = molecular target: T5, human VSTM5-EGFP (SEQ ID NO:133) …; assay: FACS, IgG1 at 22 nM on 293-huVSTM5 (VSTM5-EGFP) cells; grade from ratio to 293-MT control cells (850-2000)

Binder | Kd (VSTM5 monomer [1]) | Kd (VSTM5 monomer [2]) | ratio of 293-huVSTM5 cell binding / 293-MT control cell binding (FACS) at 22 nM mAb [3] | ratio of 293-muVSTM5 cell binding / 293-MT control cell binding (FACS) at 22 nM mAb [4] | binding result [5] | EC50 (read off the curve) [6] | EC50 (read off the curve) [7] | ratio of 293-muVSTM5 cell binding / 293-MT control cell binding (FACS) at 22 nM mAb [8] | binding result [9] | binding result [10] | ratio of 293-huVSTM5 cell binding / 293-MT control cell binding (FACS) at 22 nM mAb [11]
B1 | 657 nM | 657 nM | 50 to 400 ratio | 50 to 400 ratio |  |  |  |  |  |  | 
B2 |  |  |  |  | binds | ~3 nM | ~2 nM | 850 to 2000 ratio | binds | binds | 850 to 2000 ratio
